Reference: patent US20240132485A1, “HETEROCYCLIC CULLIN RING UBIQUITIN LIGASE COMPOUNDS AND USES THEREOF” (CEMM - FORSCHUNGSZENTRUM FÜR MOLEKULARE MEDIZIN GMBH, priority 2020, published 2024)

Columns and labels:
[1] = target: Nanoluc_DDB1 (N-terminal Nanoluc luciferase, G4S linker, DDB1 (FL)) (UniProt Q16531); test: NanoBRET in HEK293T cells, 10 µM compound Example 3-10; class C = 2-3 fold increase
[2] = target: Nanoluc_DDB1 (N-terminal Nanoluc luciferase, G4S linker, DDB1 (FL)) (UniProt Q16531); test: NanoBRET in HEK293T cells, 10 µM compound Example 3-12; class D = 1-2 fold increase
[3] = target: Nanoluc_DDB1 (N-terminal Nanoluc luciferase, G4S linker, DDB1 (FL)) (UniProt Q16531); test: NanoBRET in HEK293T cells, 10 µM compound Example 3-13; class B = 3-4 fold increase
[4] = target: Nanoluc_DDB1 (N-terminal Nanoluc luciferase, G4S linker, DDB1 (FL)) (UniProt Q16531); test: NanoBRET in HEK293T cells, 10 µM compound Example 3-18; class C = 2-3 fold increase
[5] = target: Nanoluc_DDB1 (N-terminal Nanoluc luciferase, G4S linker, DDB1 (FL)) (UniProt Q16531); test: NanoBRET in HEK293T cells, 10 µM compound Example 3-20; class C = 2-3 fold increase
[6] = target: Nanoluc_DDB1 (N-terminal Nanoluc luciferase, G4S linker, DDB1 (FL)) (UniProt Q16531); test: NanoBRET in HEK293T cells, 10 µM compound Example 3-25; class B = 3-4 fold increase
[7] = target: Nanoluc_DDB1 (N-terminal Nanoluc luciferase, G4S linker, DDB1 (FL)) (UniProt Q16531); test: NanoBRET in HEK293T cells, 10 µM compound Example 3-28; class B = 3-4 fold increase
[8] = target: Nanoluc_DDB1 (N-terminal Nanoluc luciferase, G4S linker, DDB1 (FL)) (UniProt Q16531); test: NanoBRET in HEK293T cells, 10 µM compound Example 3-31; class C = 2-3 fold increase
[9] = target: Nanoluc_DDB1 (N-terminal Nanoluc luciferase, G4S linker, DDB1 (FL)) (UniProt Q16531); test: NanoBRET in HEK293T cells, 10 µM compound Example 3-38; class B = 3-4 fold increase
[10] = target: Nanoluc_DDB1 (N-terminal Nanoluc luciferase, G4S linker, DDB1 (FL)) (UniProt Q16531); test: NanoBRET in HEK293T cells, 10 µM compound Example 3-39; class B = 3-4 fold increase
[11] = target: Nanoluc_DDB1 (N-terminal Nanoluc luciferase, G4S linker, DDB1 (FL)) (UniProt Q16531); test: NanoBRET in HEK293T cells, 10 µM compound Example 3-40; class B = 3-4 fold increase
[12] = target: Nanoluc_DDB1 (N-terminal Nanoluc luciferase, G4S linker, DDB1 (FL)) (UniProt Q16531); test: NanoBRET in HEK293T cells, 10 µM compound Example 3-46; class B = 3-4 fold increase
[13] = target: Nanoluc_DDB1 (N-terminal Nanoluc luciferase, G4S linker, DDB1 (FL)) (UniProt Q16531); test: NanoBRET in HEK293T cells, 10 µM compound Example 3-49; class B = 3-4 fold increase
[14] = target: Nanoluc_DDB1 (N-terminal Nanoluc luciferase, G4S linker, DDB1 (FL)) (UniProt Q16531); test: NanoBRET in HEK293T cells, 10 µM compound Example 3-57; class B = 3-4 fold increase
[15] = target: Nanoluc_DDB1 (N-terminal Nanoluc luciferase, G4S linker, DDB1 (FL)) (UniProt Q16531); test: NanoBRET in HEK293T cells, 10 µM compound Example 3-58; class C = 2-3 fold increase
[16] = target: Nanoluc_DDB1 (N-terminal Nanoluc luciferase, G4S linker, DDB1 (FL)) (UniProt Q16531); test: NanoBRET in HEK293T cells, 10 µM compound Example 3-59; class C = 2-3 fold increase
[17] = target: Nanoluc_DDB1 (N-terminal Nanoluc luciferase, G4S linker, DDB1 (FL)) (UniProt Q16531); test: NanoBRET in HEK293T cells, 10 µM compound Example 3-65; class B = 3-4 fold increase
[18] = target: Nanoluc_DDB1 (N-terminal Nanoluc luciferase, G4S linker, DDB1 (FL)) (UniProt Q16531); test: NanoBRET in HEK293T cells, 10-point titration of compound Example 3-22; class E = >10 µM
[19] = target: Nanoluc_DDB1 (N-terminal Nanoluc luciferase, G4S linker, DDB1 (FL)) (UniProt Q16531); test: NanoBRET in HEK293T cells, 10 µM compound Example 3-9; class A = greater than 4-fold increase
[20] = target: Nanoluc_DDB1 (N-terminal Nanoluc luciferase, G4S linker, DDB1 (FL)) (UniProt Q16531); test: NanoBRET in HEK293T cells, 10 µM compound Example 3-14; class A = greater than 4-fold increase
[21] = target: Nanoluc_DDB1 (N-terminal Nanoluc luciferase, G4S linker, DDB1 (FL)) (UniProt Q16531); test: NanoBRET in HEK293T cells, 10 µM compound Example 3-19; class A = greater than 4-fold increase
[22] = target: Nanoluc_DDB1 (N-terminal Nanoluc luciferase, G4S linker, DDB1 (FL)) (UniProt Q16531); test: NanoBRET in HEK293T cells, 10 µM compound Example 3-61; class A = greater than 4-fold increase
[23] = target: Nanoluc_DDB1 (N-terminal Nanoluc luciferase, G4S linker, DDB1 (FL)) (UniProt Q16531); test: NanoBRET in HEK293T cells, 10-point titration of compound Example 3-4; class A = EC50<=0.25 µM
[24] = target: Nanoluc_DDB1 (N-terminal Nanoluc luciferase, G4S linker, DDB1 (FL)) (UniProt Q16531); test: NanoBRET in HEK293T cells, 10-point titration of compound Example 3-35; class A = EC50<=0.25 µM
[25] = target: Nanoluc_DDB1 (N-terminal Nanoluc luciferase, G4S linker, DDB1 (FL)) (UniProt Q16531); test: NanoBRET in HEK293T cells, 10-point titration of compound Example 3-50; class A = EC50<=0.25 µM
[26] = target: Nanoluc_DDB1 (N-terminal Nanoluc luciferase, G4S linker, DDB1 (FL)) (UniProt Q16531); test: NanoBRET in HEK293T cells, 10-point titration of compound Example 3-66; class A = EC50<=0.25 µM

Chain of Nanoluc_DDB1 (N-terminal Nanoluc luciferase, G4S linker, DDB1 (FL)) (Q16531 other isoform, or with tags, fused parts or gaps): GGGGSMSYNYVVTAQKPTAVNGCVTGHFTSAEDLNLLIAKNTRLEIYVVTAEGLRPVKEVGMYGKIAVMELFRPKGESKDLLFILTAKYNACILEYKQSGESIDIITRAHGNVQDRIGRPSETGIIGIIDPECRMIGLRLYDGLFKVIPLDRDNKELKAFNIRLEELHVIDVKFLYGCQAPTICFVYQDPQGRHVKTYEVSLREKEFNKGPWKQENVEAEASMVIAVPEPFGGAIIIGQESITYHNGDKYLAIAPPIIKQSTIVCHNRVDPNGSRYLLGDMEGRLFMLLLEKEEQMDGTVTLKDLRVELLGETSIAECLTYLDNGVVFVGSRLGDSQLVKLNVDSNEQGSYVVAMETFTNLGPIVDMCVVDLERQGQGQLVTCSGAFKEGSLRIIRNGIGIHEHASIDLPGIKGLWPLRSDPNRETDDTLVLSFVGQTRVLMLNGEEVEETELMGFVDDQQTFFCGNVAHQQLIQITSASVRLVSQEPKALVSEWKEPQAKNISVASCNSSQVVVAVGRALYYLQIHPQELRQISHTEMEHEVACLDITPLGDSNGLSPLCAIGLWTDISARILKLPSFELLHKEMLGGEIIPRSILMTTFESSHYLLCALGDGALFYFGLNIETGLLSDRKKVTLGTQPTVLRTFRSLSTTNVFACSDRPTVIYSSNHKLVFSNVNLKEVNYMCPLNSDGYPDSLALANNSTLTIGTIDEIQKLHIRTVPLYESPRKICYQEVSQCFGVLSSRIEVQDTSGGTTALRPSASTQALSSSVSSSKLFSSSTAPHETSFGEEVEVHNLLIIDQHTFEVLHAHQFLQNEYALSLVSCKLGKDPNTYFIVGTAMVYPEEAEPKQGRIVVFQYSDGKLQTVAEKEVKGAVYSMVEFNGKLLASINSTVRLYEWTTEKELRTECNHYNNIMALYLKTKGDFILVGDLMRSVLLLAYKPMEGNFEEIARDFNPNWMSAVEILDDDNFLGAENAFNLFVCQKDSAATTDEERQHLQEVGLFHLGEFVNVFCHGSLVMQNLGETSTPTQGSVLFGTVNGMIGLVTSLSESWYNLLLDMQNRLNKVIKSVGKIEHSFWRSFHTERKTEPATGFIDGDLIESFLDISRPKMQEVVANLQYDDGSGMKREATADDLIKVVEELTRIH

- NanoBRET fold increase [1]: 2 to 3 fold
- NanoBRET fold increase [2]: 1 to 2 fold
- NanoBRET fold increase [3]: 3 to 4 fold
- NanoBRET fold increase [4]: 2 to 3 fold
- NanoBRET fold increase [5]: 2 to 3 fold
- NanoBRET fold increase [6]: 3 to 4 fold
- NanoBRET fold increase [7]: 3 to 4 fold
- NanoBRET fold increase [8]: 2 to 3 fold
- NanoBRET fold increase [9]: 3 to 4 fold
- NanoBRET fold increase [10]: 3 to 4 fold
- NanoBRET fold increase [11]: 3 to 4 fold
- NanoBRET fold increase [12]: 3 to 4 fold
- NanoBRET fold increase [13]: 3 to 4 fold
- NanoBRET fold increase [14]: 3 to 4 fold
- NanoBRET fold increase [15]: 2 to 3 fold
- NanoBRET fold increase [16]: 2 to 3 fold
- NanoBRET fold increase [17]: 3 to 4 fold
- EC50 [18]: > 10 µM
- NanoBRET fold increase [19]: > 4 fold
- NanoBRET fold increase [20]: > 4 fold
- NanoBRET fold increase [21]: > 4 fold
- NanoBRET fold increase [22]: > 4 fold
- EC50 [23]: < 0.25 µM
- EC50 [24]: < 0.25 µM
- EC50 [25]: < 0.25 µM
- EC50 [26]: < 0.25 µM
Substance: HaloTag_CDK12 (N-terminal HaloTag, G4S linker, CDK12 (713-1052)) (from UniProt Q9NYV4 713-1052) (enzyme)
